Laboratory results published in patent US20080260750A1 (MCGILL UNIVERSITY, published 2008).

B1: ACC-2D6.3 acetylcholine-gated chloride channel subunit (receptor)
chain: DYSELVHSAELVSSSSYIHHKTNKKPDNCTRDTDIIDRLLNGTGYNKFRIPQEEGMTVVVEIWIQAITSIDELTNDFDMDIYITETWLDPALNFQTMTPCKGNLSLNHQVLDRLWTPNSCFINSKVAQIHNSPFRSVFLMLFPNGTVMVNYRVRVKGPCSLDLSNFPLDLQKCSLIYESFNYNRQEVEMRWSDAEHPVFNLSKIMLPDFDLFEIQTERRQEPYPAGMWDELHVTIIFERRFIWYFMQAYLPTYLTIFISWISFSLGSRAIPARTMLGVNSLLAIVFSFGNIMRNLPRVSYIKGIDVWMLVSMTFIFCSLLELAIVGFMVRDETVAKKKQQKKISGNISREESPHGIISERRFMFPPGCSESSKSLSSCTSGWTPERIDSISSVMFPFSFFVFNIIYWFYYIHRKEIIKQNLINRVDG
notes: Expressed from cRNA in Xenopus oocytes; also called ACC-2D6.3 receptor; ACC-2D6.3 channel
B2: ACC-4E9.9 acetylcholine-gated chloride channel subunit (receptor)
chain: LLRSLEDDSNECMFNCPKRARNVSVPHTEKTCMGDDAIIAQILDGYNKLDLPGGGHVVVSIEIWVQEVSKIIEITSEFELDIYVTERWTDPSLAYSHLNPCKSNMSVDGATILNKIWNPHACFVNSKLANIHESPFKNIFLQIYSNGSIWHNYRIKLTGPCSSTLRTFPIDQQRCMLFYESFTHNTDQVKMEWITTVPPITILKGNITLPDYVLVDFSSSSELRLYPPGIFNELIATFTFQRLYGFYILQVYVPAYISVFISWVSFTLGAEQIPSRTTVGVNSLLALTFQFGAVVNNLPKTSDVKAIDVWILSSMAFIFASLIELAVVGYLSRDGQHGSIKCRCSWLCMNCKDWTALKIDQMSSIVFPVSFLAFNIWYWFIFLGKLLVRTI
B3: ACC-1G6.4 acetylcholine-gated chloride channel subunit (receptor)
chain: QSLDNCANDTEIINALLKDSYNKHYIPSHPTHVRVDMWVQEVTSVSELTQDFEIDLYINEFWEDPALVYEDMNPCKRNISFDDKVLQRLWLPNTCFINSKSAAIHESPFKNVFLMVFSNGTLWTNYRMKLTGPCDMKLKRFPFDKQKCYLTFESFNYNTGEVRMQWNQPYPVILLKRIELPDFKLVNFSVIAVEQMYPAGWWDELTVAFVFERRYGWYVLQGYIPTMVTIVISWISFYLGPRAIPARTMLGVNSLLAMTFQFGNIIRNLPRVSYVKAIDVWMLSGMLFIFLSLLELAVVGFMSRNEGLPPKVKKRKRQEDDDEGFSWKSMQTSPHLELRQFWVDKRVNSLRNDSAVPPVEDYAPMELEQPYQNITKRREKRKWMSGLRKKWRAMRELRPETVDFYSAIFFPTAYMLFNISYWSFYLTSLSEYFDEDVNIDQP
notes: Expressed from cRNA in Xenopus oocytes; also called ACC-1G6.4 receptor; ACC-1G6.4 channel

Tests used:
[1] = target: T1, ACC-3D10.5 acetylcholine-gated chloride channel subunit (C. elegans, UniProt G5EDN0 20-517); test: co-expression in Xenopus oocytes, two-electrode voltage clamp (inferred from loss of the ACh response)
T1 sequence: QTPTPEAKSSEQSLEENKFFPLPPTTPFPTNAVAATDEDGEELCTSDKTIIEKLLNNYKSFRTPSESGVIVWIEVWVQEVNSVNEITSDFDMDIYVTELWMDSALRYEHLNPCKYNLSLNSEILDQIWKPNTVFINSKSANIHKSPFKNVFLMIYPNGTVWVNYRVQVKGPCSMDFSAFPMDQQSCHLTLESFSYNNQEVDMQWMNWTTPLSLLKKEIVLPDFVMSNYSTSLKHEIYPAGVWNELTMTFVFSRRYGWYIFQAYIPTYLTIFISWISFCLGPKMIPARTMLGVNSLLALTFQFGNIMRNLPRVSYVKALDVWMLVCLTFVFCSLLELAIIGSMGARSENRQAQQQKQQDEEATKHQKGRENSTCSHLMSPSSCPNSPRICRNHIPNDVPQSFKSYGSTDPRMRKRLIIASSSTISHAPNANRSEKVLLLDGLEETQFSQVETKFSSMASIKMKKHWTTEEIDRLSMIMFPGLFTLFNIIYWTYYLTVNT
Procedure: (§1) Oocytes were injected with 40 nl of cRNA using the Nanoject system (Drummond Scientific, Broomall, Pa., USA). Injected oocytes were incubated at 20° C. in ND96 supplemented with 100 mg/ml gentamycin and 550 mg/ml pyruvate. Oocytes were allowed to express cRNA for two days before measurements were taken.

[2] = target: B1; test: as above
Procedure: as §1

[3] = target: T1, ACC-3D10.5 acetylcholine-gated chloride …; test: co-expression in Xenopus oocytes, two-electrode voltage clamp (inferred from changed desensitization, EC50 and Hill coefficient for ACh)
Procedure: as §1

Binder: B1
- binding result [1]: binds

Binder: B2
- binding result [2]: binds

Binder: B3
- binding result [3]: binds
